In the test the target is T1, OTUD4 human recombinant protein (human, UniProt Q01804 1-1114).
T1 construct: deubiquitinase OTUD4, human, recombinant protein from Origene; No catalogue number is printed; also called deubiquitinase OTUD4; source: bought: Origene Technologies, Inc
T1 sequence (looked up): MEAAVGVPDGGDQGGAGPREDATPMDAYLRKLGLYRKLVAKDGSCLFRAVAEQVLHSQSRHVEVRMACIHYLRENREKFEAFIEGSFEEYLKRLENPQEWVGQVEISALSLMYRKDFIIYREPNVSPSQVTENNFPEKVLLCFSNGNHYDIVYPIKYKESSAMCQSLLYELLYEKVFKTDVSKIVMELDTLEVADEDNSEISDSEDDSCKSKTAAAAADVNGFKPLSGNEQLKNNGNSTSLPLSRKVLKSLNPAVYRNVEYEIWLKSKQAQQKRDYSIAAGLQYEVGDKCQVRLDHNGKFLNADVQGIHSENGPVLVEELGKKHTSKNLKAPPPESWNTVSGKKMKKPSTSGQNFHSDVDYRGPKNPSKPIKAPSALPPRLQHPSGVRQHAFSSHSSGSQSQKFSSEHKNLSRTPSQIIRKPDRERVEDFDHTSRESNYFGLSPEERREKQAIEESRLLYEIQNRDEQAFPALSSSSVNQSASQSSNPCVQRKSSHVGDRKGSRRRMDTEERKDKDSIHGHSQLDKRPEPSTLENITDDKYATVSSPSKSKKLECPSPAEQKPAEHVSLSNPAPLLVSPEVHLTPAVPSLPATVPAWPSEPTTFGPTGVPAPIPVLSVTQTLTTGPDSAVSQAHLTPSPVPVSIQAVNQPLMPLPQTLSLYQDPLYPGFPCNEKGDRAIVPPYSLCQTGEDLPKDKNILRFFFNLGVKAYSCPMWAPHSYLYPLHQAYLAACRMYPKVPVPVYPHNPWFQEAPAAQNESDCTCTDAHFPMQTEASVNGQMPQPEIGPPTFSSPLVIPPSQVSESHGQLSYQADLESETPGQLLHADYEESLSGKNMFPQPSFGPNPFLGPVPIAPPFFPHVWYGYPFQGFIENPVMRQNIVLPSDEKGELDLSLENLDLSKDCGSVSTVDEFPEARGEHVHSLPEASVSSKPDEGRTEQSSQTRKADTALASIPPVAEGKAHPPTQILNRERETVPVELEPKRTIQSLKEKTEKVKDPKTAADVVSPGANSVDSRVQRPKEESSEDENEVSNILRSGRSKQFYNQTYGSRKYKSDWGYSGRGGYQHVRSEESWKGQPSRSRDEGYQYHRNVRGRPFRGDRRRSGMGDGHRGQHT
The test can be described thus: SPR; Biacore T200; OTUD4 on a CM5 chip by amine coupling; various concentrations of PFKFB3 injected over the OTUD4 surface. The note with it: both partners purified. On the technique in general: In SPR one partner is held on a chip, and binding of the other changes the refractive index at the surface.

B1: human recombinant PFKFB3 protein (enzyme, UniProt Q16875 1-520, looked up)
chain: MPLELTQSRVQKIWVPVDHRPSLPRSCGPKLTNSPTVIVMVGLPARGKTYISKKLTRYLNWIGVPTKVFNVGEYRREAVKQYSSYNFFRPDNEEAMKVRKQCALAALRDVKSYLAKEGGQIAVFDATNTTRERRHMILHFAKENDFKAFFIESVCDDPTVVASNIMEVKISSPDYKDCNSAEAMDDFMKRISCYEASYQPLDPDKCDRDLSLIKVIDVGRRFLVNRVQDHIQSRIVYYLMNIHVQPRTIYLCRHGENEHNLQGRIGGDSGLSSRGKKFASALSKFVEEQNLKDLRVWTSQLKSTIQTAEALRLPYEQWKALNEIDAGVCEELTYEEIRDTYPEEYALREQDKYYYRYPTGESYQDLVQRLEPVIMELERQENVLVICHQAVLRCLLAYFLDKSAEEMPYLKCPLHTVLKLTPVAYGCRVESIYLNVESVCTHRERSEDAKKGPNPLMRRNSVTPLASPEPTKKPRINSFEEHVASTSAALPSCLPPEVPTQLPGQNMKGSRSSADSSRKH
notes: phosphofructokinase-2/fructose-2,6-bisphosphatase 3 (PFKFB3), human, recombinant protein from Origene; No catalogue number is printed; also called phosphofructokinase-2/fructose-2,6-bisphosphatase 3; source: bought: Origene
The Kd is the equilibrium constant for the complex coming apart. In the case of B1, the dissociation constant (Kd) was determined as 0.25 µM.

Values taken from publication PMC10234888, “Upregulation of glycolytic enzyme PFKFB3 by deubiquitinase OTUD4 promotes cardiac fibrosis post myocardial infarction” (Journal of Molecular Medicine (Berlin, Germany), 2023).
